Reference: patent publication US20080181899A1 (Regeneron, published 2008)

T1: hDII1-hFc (human delta-like ligand 1 fused to human Fc) (human, UniProt O00548 18-544)
T1 construct: not shown: human Fc
T1 sequence: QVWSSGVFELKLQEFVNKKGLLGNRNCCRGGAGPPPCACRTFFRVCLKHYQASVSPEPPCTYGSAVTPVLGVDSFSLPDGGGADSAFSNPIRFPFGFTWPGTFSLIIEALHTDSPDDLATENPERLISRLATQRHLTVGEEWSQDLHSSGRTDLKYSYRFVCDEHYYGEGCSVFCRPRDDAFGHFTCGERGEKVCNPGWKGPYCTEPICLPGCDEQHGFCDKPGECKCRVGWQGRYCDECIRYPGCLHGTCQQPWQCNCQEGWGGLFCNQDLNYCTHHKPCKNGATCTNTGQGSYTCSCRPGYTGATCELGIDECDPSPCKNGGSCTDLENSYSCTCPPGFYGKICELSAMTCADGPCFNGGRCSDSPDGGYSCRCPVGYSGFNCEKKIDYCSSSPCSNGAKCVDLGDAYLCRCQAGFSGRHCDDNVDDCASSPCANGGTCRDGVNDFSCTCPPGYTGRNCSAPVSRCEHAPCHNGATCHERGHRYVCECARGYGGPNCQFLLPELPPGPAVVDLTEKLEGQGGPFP

T2: mmDII4-mFc (M. mulatta, UniProt Q9NR61 27-524 (human entry))
T2 construct: also called mmDII4 dimer; not shown: mouse Fc
T2 chain: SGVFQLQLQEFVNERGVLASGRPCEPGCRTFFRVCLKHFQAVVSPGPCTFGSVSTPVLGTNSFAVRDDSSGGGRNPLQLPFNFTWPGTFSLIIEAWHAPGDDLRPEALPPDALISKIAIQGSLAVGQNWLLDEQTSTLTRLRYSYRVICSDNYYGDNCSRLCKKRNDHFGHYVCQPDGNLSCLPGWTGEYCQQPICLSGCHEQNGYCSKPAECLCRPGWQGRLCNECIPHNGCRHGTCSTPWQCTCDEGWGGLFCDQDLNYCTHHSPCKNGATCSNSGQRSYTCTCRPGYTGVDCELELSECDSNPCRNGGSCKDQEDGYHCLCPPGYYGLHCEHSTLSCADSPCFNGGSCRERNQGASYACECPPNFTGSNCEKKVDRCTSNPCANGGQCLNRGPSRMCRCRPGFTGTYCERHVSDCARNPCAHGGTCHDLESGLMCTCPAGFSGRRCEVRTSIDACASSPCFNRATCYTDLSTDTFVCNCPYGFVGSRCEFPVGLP

T3: M. mulatta DII4 monomer (M. mulatta, UniProt Q9NR61 27-524 (human entry))
T3 construct: also called mmDII4
T3 chain: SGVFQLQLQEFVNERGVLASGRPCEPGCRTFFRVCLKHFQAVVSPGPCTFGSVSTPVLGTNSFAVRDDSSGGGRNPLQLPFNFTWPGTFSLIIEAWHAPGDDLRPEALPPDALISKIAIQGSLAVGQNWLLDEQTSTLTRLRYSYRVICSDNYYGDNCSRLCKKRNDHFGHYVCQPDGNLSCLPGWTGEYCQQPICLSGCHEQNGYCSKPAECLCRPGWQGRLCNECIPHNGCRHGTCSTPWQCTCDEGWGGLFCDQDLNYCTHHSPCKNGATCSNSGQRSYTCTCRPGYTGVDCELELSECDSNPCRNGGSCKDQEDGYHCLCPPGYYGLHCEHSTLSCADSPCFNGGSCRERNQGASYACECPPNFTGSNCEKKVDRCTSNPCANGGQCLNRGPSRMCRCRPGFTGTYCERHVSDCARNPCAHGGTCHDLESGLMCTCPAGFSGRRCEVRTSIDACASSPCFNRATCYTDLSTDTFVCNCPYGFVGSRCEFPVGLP

B1: 318518-01A10-D8 (antibody, human IgG1)
heavy: not shown
VL: EIVMTQSPATLSLSPGERATLSCRASQSVSSYLAWYQQKPGQAPRLLIYDASNRATGIPARFSGSGSGTDFTLTISSLEPEDFAVYYCQHRSNWPPTFGGGTKVEIK
notes: HCVR 429 with hIgG1 constant region 950; also called REGN281; 318518-1A10-D8
B2: REGN422 (antibody, human IgG4 S228P)
heavy: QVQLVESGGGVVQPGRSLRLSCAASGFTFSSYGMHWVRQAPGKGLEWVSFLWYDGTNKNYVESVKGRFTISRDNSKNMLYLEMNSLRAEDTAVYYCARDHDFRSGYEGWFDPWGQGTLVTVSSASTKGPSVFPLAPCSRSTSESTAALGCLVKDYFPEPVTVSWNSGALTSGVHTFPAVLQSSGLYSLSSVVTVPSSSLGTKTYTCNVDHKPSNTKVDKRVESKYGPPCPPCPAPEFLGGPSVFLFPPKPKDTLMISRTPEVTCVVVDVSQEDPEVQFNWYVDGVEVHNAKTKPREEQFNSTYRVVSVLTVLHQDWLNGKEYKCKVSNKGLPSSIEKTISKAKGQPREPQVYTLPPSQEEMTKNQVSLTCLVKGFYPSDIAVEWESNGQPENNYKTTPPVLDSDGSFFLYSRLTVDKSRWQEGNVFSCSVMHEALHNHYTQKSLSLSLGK
VL: EIVLTQSPATLSLSPGERATLSCRASQSVSSYLAWYQQKPGQAPRLLIYDASNRATGIPARFSGSGSGTDFTLTISSLEPEDFAVYYCQHRSNWPPTFGGGTKVEIK
notes: HCVR 901 with modified hIgG4 constant region 952
B3: REGN421 (antibody, human IgG1)
heavy: not shown
VL: EIVLTQSPATLSLSPGERATLSCRASQSVSSYLAWYQQKPGQAPRLLIYDASNRATGIPARFSGSGSGTDFTLTISSLEPEDFAVYYCQHRSNWPPTFGGGTKVEIK
notes: HCVR 901 with hIgG1 constant region 950

What was measured:
[1] = target: T1, hDII1-hFc (human delta-like ligand 1 …); test: SPR BIACORE; antibody captured by anti-human kappa; hDII1-hFc analyte
Method: Cross-reactivity of the antibodies to human delta-like ligand1 (SEQ ID NO:953) and human delta-like ligand 3 (SEQ ID NO:954) proteins was determined.

dimeric hDII4-hFc [2] = target: T4, dimeric hDII4-hFc (human, UniProt Q9NR61 27-524, biotin in Example 3 (biotin-DII4-hFc), site not stated); test: cell-based or functional assay
mDII4-mFc = target: T5, mDII4-mFc (mouse, UniProt Q9JI71 28-525); test: SPR BIACORE; DII4 protein captured by anti-mouse IgG; antibody injected
T5 construct: also called mouse DII4-mFc; not shown: mouse Fc
Method: (§1) Briefly, each of the DII4 proteins was captured (240-470 RU) on goat anti-mouse IgG antibody surfaces, followed by injection of test antibody at a concentration of 100 μg/ml (Table 11).

hDII4-mFc = target: T6, hDII4-mFc (human, UniProt Q9NR61 27-524); test: SPR BIACORE; antibody captured by anti-hFc; dimer analyte
T6 construct: also called dimeric DII4-mFc; not shown: mouse Fc

mmDII4-mFc = target: T2, mmDII4-mFc; test: as above
dimeric hDII4-hFc [3] = target: T4, dimeric hDII4-hFc; test: competition ELISA; antibody titrated against 30 pM biotin-DII4-hFc (1 hr); free biotin-DII4-hFc on Notch-hFc plate
Method: The ability of the antibodies to block DII4 binding to Notch was evaluated with an ELISA-based immunoassay. Briefly, Notch-hFc recombinant protein was coated on a 96-well plate in PBS buffer overnight at 4° C. at […], and the nonspecific binding sites were blocked with BSA.

M. mulatta DII4 monomer = target: T3, M. mulatta DII4 monomer; test: SPR BIACORE; antibody captured by anti-hFc; monomer analyte
Method: The binding affinities of selected purified antibodies to hDII4, M. facscicularis DII4 (mfDII4, SEQ IN NO:956), and M. mulatta DII4 (mmDII4, SEQ ID NO:957) monomers were determined using a BIACORE™ 2000 & 3000.

[4] = target: T7, chimeric DII4 protein #3 (human N-terminal, DSL, EGF-1 and EGF-2 domains, S27-Q283, in mouse DII4) fused to … (human; mouse, UniProt Q9JI71 285-525); test: SPR BIACORE; DII4 protein captured by anti-mouse IgG; antibody at 100 µg/ml
T7 construct: not shown: mouse IgG2a-Fc fragment
Method: as §1

[5] = target: T8, chimeric DII4 protein #5 (human N-terminal domain, S27-R172, in mouse DII4) fused to mouse IgG2a-Fc (human; mouse, UniProt Q9JI71 174-525); test: as above
T8 construct: not shown: mouse IgG2a-Fc fragment
Method: as §1

[6] = target: T9, chimeric DII4 protein #6 (human DSL domain, V173-Q218, in mouse DII4) fused to mouse IgG2a-Fc (mouse; human, UniProt Q9JI71 28-173; Q9JI71 220-525); test: as above
T9 construct: not shown: mouse IgG2a-Fc fragment
Method: as §1

[7] = target: T10, chimeric DII4 protein #1 (human N-terminal and DSL domains, S27-Q218, in mouse DII4) fused to mouse IgG2a-Fc (human; mouse, UniProt Q9JI71 220-525); test: as above
T10 construct: Used as CHO-K1 conditioned medium; not shown: mouse IgG2a-Fc fragment
Method: as §1

Row | Binder | binding result [1] | Notch-inducible luciferase assay IC50 (pM), 1 nM hDII4-hFc (dimeric hDII4-hFc [2]) [pM] | Notch-inducible luciferase assay IC50 (pM), 1.5 nM hDII4-hFc (dimeric hDII4-hFc [2]) [pM] | binding result (mDII4-mFc) | Kd (hDII4-mFc) [nM] | koff (hDII4-mFc) [s⁻¹] | kon (hDII4-mFc) [M⁻¹ s⁻¹] | Kd (mmDII4-mFc) [nM] | koff (mmDII4-mFc) [s⁻¹] | kon (mmDII4-mFc) [M⁻¹ s⁻¹] | IC50 (dimeric hDII4-hFc [3]) [nM] | Kd (M. mulatta DII4 monomer) [nM] | koff (M. mulatta DII4 monomer) [s⁻¹] | kon (M. mulatta DII4 monomer) [M⁻¹ s⁻¹] | binding result [4] | binding result [5] | binding result [6] | binding result [7]
1 | B1 | no binding (tested: 100 µg/ml) | 50.5 | 78.7 | no binding (tested: 100 µg/ml) | 0.0163 | 4.96e-06 | 302000 | 0.0147 | 4.64e-06 | 316000 | 0.042 | 0.329 | 3.05e-05 | 92700 | binds | binds | binds | binds
2 | B2 | no binding (tested: 100 µg/ml) | 88.2 | 131 | no binding (tested: 100 µg/ml) | 0.0133 | 4.6e-06 | 346000 | 0.0098 | 4.15e-06 | 423000 | 0.039 | 0.375 | 3.41e-05 | 92700 | binds | binds | binds | binds
3 | B3 | no binding (tested: 100 µg/ml) | 54.4 | 87.3 | no binding (tested: 100 µg/ml) | 0.0137 | 4.7e-06 | 343000 | 0.013 | 3.8e-06 | 335000 | 0.045 | 0.333 | 3.23e-05 | 97000 | binds | binds | binds | binds
